Results: the supplement of paper PMC9732359
± gives the uncertainty stated by the source.

Experiment: protein stability index of a GFP-peptide fusion (yeast GPS) (PSI 1-4); higher = more stable; sorted into four equal gates, so the index is relative within each strain
Summary of the method: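 The protein stability index of a peptide was calculated by multiplying its read frequency in each gate by that gate's number and adding the products. The peptides were tiled 17-residue stretches of yeast proteins, fused downstream of GFP on a Cherry-expressing plasmid and carried in yeast as a pooled library. Mid-log cultures in leucine-free medium were sorted into four equal gates by GFP/Cherry ratio, and each gate's plasmids were PCR-amplified and Illumina-sequenced.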

Sequence | protein stability index (doa10∆) | protein stability index (pdr5∆) | protein stability index (san1∆) | protein stability index (ubr1∆)
KLLLLRINSTDEDLHEF [SRB8] | 2.61 ± 0.2 | 3.06 ± 0.16 | 2.94 ± 0.18 | 3.24 ± 0.27
LPLATQQQVLNKLRQQA [SNF5] | 2.56 ± 0.27 | – | – | –
SSNSQQSTPQPDDMVEI [ITC1] | 3.09 ± 0.064 | 2.74 ± 0.059 | 2.58 ± 0.054 | 2.87 ± 0.047
NVSLIKIEGVATPQDAQ [RPL33A] | 2.74 ± 0.082 | 2.52 ± 0.061 | 2.38 ± 0.11 | 2.37 ± 0.059
KQNEQLHVEQLSGGQKT [SMC3] | 2.07 ± 0.095 | 2.71 ± 0.099 | 2.19 ± 0.1 | 2.19 ± 0.053
KLLKEKVKLFHGILDDL [MED2] | 3.1 ± 0.12 | 2.93 ± 0.13 | 3.09 ± 0.06 | 2.97 ± 0.14
NTENVESVPTPANAEPQ [ITC1] | 3.11 ± 0.087 | 3 ± 0.086 | 2.96 ± 0.1 | 3.22 ± 0.12
LEFSALSAADIVAQSEV [RPO31] | 3.01 ± 0.093 | 3.13 ± 0.075 | 3.1 ± 0.071 | 3.17 ± 0.059
DNKDKEGNAGGDQKTSE [YOR098C/NUP1] | – | 3.6 ± 0.17 | 3.19 ± 0.17 | 3.35 ± 0.074
LKDSKDFDESLKYLDDL [RPN9] | 3.02 ± 0.21 | 3.21 ± 0.14 | – | 2.86 ± 0.17
WQIEEAGNSQITSGGFL [SRB5] | 2.98 ± 0.2 | 3.13 ± 0.17 | 3.07 ± 0.25 | 3.23 ± 0.14
DIKDFADKVYTKENLEV [QCR2] | 3.34 ± 0.092 | 3.42 ± 0.11 | 2.69 ± 0.12 | 3.33 ± 0.053
ELKEITSLPDWCQEAFP [BRR2] | 2.86 ± 0.069 | 2.73 ± 0.076 | 3.11 ± 0.064 | 3.08 ± 0.046
AFYQKGNKLVELMRIIS [SMC1] | 1.59 ± 0.27 | 1.15 ± 0.19 | – | 1.38 ± 0.25
SVDESARIKDAFITQLE [YJL039C/NUP192] | 3.03 ± 0.12 | 2.61 ± 0.17 | 2.9 ± 0.16 | 2.87 ± 0.11
PTKLLVSEVAKIMQEAT [PRE8] | 2.63 ± 0.067 | 2.58 ± 0.085 | 2.72 ± 0.11 | 2.73 ± 0.062
MSAPQAKILSQAPTELE [RPS7A] | 2.79 ± 0.08 | 2.9 ± 0.068 | 2.41 ± 0.1 | 2.53 ± 0.073
LVDQGFNYSGKDMLYSG [RET1] | 3.46 ± 0.084 | 3.29 ± 0.083 | 3.36 ± 0.052 | 3.52 ± 0.044
DLFSNNNYNSRIQLMND [MED1] | 3 ± 0.2 | 2.9 ± 0.25 | 2.93 ± 0.11 | 3.06 ± 0.13
KDEIVLSGNSVEDVSQN [RPL9A] | – | 3.52 ± 0.26 | – | –
DMDGVDFNQAFEGTDDN [BRN1] | 2.97 ± 0.094 | 3.04 ± 0.091 | 3.35 ± 0.094 | 3.17 ± 0.072
NLGYCNDKLIVDNDNWV [RPN1] | 2.37 ± 0.1 | 2.79 ± 0.18 | 2.32 ± 0.2 | –
MLLVDIIPSRMGEAQTG [REC8] | 1.7 ± 0.063 | 1.87 ± 0.073 | 2.02 ± 0.09 | 2.17 ± 0.061
IVWRFISENTFPNGFKN [RPC34] | 1.84 ± 0.06 | 2.05 ± 0.042 | 2.06 ± 0.077 | 2.33 ± 0.046
VTSEKYPFDKLESWWLV [BRR2] | 2.42 ± 0.29 | 2.91 ± 0.19 | 2.79 ± 0.12 | 3.3 ± 0.087

Sequence | protein stability index (doa10∆) | protein stability index (pdr5∆) | protein stability index (san1∆) | protein stability index (ubr1∆)
GINKNEEYRKQLDKKNE [SMC1] | 3.22 ± 0.12 | 2.62 ± 0.069 | 2.3 ± 0.082 | 2.58 ± 0.045
TEQIKMRILSNDITNLQ [SRB8] | 2.33 ± 0.042 | 2.31 ± 0.037 | 2.15 ± 0.043 | 2.16 ± 0.029
HDELIDSIPRDVAYLLK [YGL172W/NUP49] | 2.49 ± 0.12 | 2.82 ± 0.13 | 2.89 ± 0.055 | 3.05 ± 0.095
EYEEWQKSVSLLSSESN [YDL116W/NUP84] | 2.93 ± 0.055 | 3.02 ± 0.077 | 2.84 ± 0.053 | 2.73 ± 0.054
GLVCADTFRAGAFDQLK [SRP54] | 3.14 ± 0.1 | 3.54 ± 0.1 | 3.34 ± 0.11 | 3.25 ± 0.084
VDSISLHKIFYKVLKNN [YCG1] | 1.99 ± 0.047 | 2.32 ± 0.039 | 2.71 ± 0.037 | 2.3 ± 0.042
LLINTNFNKFFKIWHGE [PCI8] | 1.37 ± 0.04 | 1.38 ± 0.04 | 1.57 ± 0.061 | 1.37 ± 0.044
LSRKPSDNKKRSGSNAA [RPC82] | 2.92 ± 0.06 | 3.31 ± 0.064 | 3.03 ± 0.045 | 3.03 ± 0.044
NKFHKSIREDILECDLL [SIR2] | 2.73 ± 0.058 | 2.91 ± 0.066 | 3 ± 0.049 | 3.08 ± 0.06
TKLKNAVQNESVSSPIE [QCR2] | 3.05 ± 0.11 | 3.1 ± 0.084 | 3.25 ± 0.094 | 3.05 ± 0.067
FSRHAQQQTSTFNSKPV [SIR4] | 2.38 ± 0.056 | 2.82 ± 0.058 | 2.07 ± 0.076 | 2.38 ± 0.047
SADREIQRTLMELLTQM [RPT4] | 2.93 ± 0.12 | 3.16 ± 0.1 | 3.27 ± 0.087 | 3.02 ± 0.095
KKDVEKELPDKVEKVVK [SNF2] | 3.52 ± 0.23 | 3.47 ± 0.14 | 3.39 ± 0.099 | 3.34 ± 0.089
QNKKNLKWVAVVPDLGH [SSN2] | 2.67 ± 0.085 | 3.07 ± 0.051 | 2.81 ± 0.07 | 3.02 ± 0.1
IKSKADAWVSAAHYNRE [PRP8] | 1.79 ± 0.078 | 1.48 ± 0.065 | 2.6 ± 0.06 | 1.7 ± 0.11
ISKDCSAFACKTDEVII [BRR2] | 2.99 ± 0.12 | 3.38 ± 0.082 | 3.44 ± 0.088 | 2.88 ± 0.073
LGRLNKLRKIAISKKNK [LIN1] | 2 ± 0.083 | 1.74 ± 0.096 | 1.39 ± 0.23 | 1.47 ± 0.072
FKSYATRTVITDWDPQF [SMC2] | 2.88 ± 0.11 | 3.06 ± 0.083 | 2.72 ± 0.12 | 2.85 ± 0.097
NTGIVSSTTGMSYVVRI [RPT3] | 3.17 ± 0.11 | 3.04 ± 0.19 | 3.31 ± 0.11 | 3.25 ± 0.09
LHPYNSRGLFEKKLMQD [YDL116W/NUP84] | 2.89 ± 0.18 | 3.28 ± 0.16 | 2.86 ± 0.1 | 2.91 ± 0.13
KKKAFTKYSAKYAQDGA [RPL3] | 3.03 ± 0.12 | 3.38 ± 0.09 | 3.1 ± 0.054 | 3.04 ± 0.032
KPETPKGPIIISKNPSN [SIR2] | 2.92 ± 0.063 | 3 ± 0.052 | 2.67 ± 0.06 | 2.88 ± 0.046
LKKKVVDPFTRKEWFDI [RPS1B] | 2.97 ± 0.075 | 3.18 ± 0.071 | 3.18 ± 0.045 | 2.88 ± 0.049
HGYFLQDKEKIDNLKDT [ITC1] | 3.18 ± 0.072 | 3.41 ± 0.069 | 3.24 ± 0.057 | 3.42 ± 0.057
SLVKYPELLDSLAILGM [SWI1] | 1.89 ± 0.06 | 2.31 ± 0.054 | 1.99 ± 0.075 | 2.16 ± 0.051
